This note sets out measurements from patent US20220348651A1, “ENTPD2 ANTIBODIES, COMBINATION THERAPIES, AND METHODS OF USING THE ANTIBODIES AND COMBINATION THERAPIES” (Novartis AG, priority 2019, published 2022).

One experiment deals with B16F10 tumor model. The experiment in a line: Syngeneic B16F10 tumor model, combination with anti-PD-1 Ab; tumor T cell influx by flow cytometry. Type of experiment: in vivo, C57BL/6 mice. How it is done: B16F10 model was established in female C57BL/6 mice by subcutaneous injection of 0.5×10^6 cells into the right flank of each mouse. On day 7 once tumors reached approximately 30 mm^3, mice were randomized according to tumor volume into treatment groups (n=10 per group). Mice received treatment of either anti-mouse ENTPD2 mAb13 at a final dose 15 mg/kg, anti-PD-1 Ab (clone RMP1-14 Bio X Cell, West Lebanon, N.H.) i.p. at a final dose of 10 mg/kg or the combination of both treatments on days 1, 5, and 8. All doses were adjusted to individual mouse body weights.
In order to understand the impact of treatments on the tumor microenvironment, mice were euthanized on day 8 and tumors were dissociated in HyClone RPMI1640 media (GE Healthcare, Pittsburg, Pa.) using gentleMacs C-tubes (Miltenyi Biotec, Auburn, Calif.) on the gentleMacs Octo Dissociator (Miltenyi Biotec, Auburn, Calif.). Approximately 2×10^6 dissociated tumor cells were blocked with rat anti-mouse CD16/CD32 Ab (Biolegend, San Diego, Calif.) to reduce non-specific FcγRIII/II binding and subsequently stained with the following cocktail of Abs: rat anti-mouse CD45-BUV395 (clone 30-F11) (BD Biosciences, San Jose, Calif.), rat anti-mouse CD8a-BUV737 (clone 53-6.7) (BD Biosciences, San Jose, Calif.), rat anti-mouse CD4-BV510 (clone RM4-5) (BD Bioscience, San Jose, Calif.), anti-mouse CD69-PercPCy5.5 (clone H1-2F3) (Biolegend, San Diego, Calif.) and rat anti-mouse CD25-eFluor450 (clone eBio3C7) (eBioscience, San Diego, Calif.) at the manufacturers' recommended dilutions. All incubations and washes were performed in FACS Buffer composed of 1× HyClone Phosphate Buffered Saline (GE Healthcare, Pittsburg, PA), 1% HyClone Fetal Bovine Serum (GE Healthcare, Pittsburg, Pa.), 2 mM EDTA (ThermoFisher, Waltham Mass.). After staining with the cell surface antigen antibody cocktail, dissociated tumor cells were washed in FACS buffer, fixed and permeabilized using the eBioscience Foxp3/Transcription Factor Staining Buffer Kit (ThermoFisher, Waltham Mass.) to allow for intracellular staining with the mouse anti-mouse FOXP3-eFluor660 (clone 150D/E4) (eBioscience, San Diego, Calif.).
In general terms: In flow cytometry, cells or beads pass a laser one at a time.

For a further experiment, the target named is T1, Human ENTPD1 (Homo sapiens, UniProt P49961).
T1 construct: expressed in transfected cells; host or cells: NIH/3T3 (retroviral transduction, FACS-sorted)
T1 sequence (P49961 1-510): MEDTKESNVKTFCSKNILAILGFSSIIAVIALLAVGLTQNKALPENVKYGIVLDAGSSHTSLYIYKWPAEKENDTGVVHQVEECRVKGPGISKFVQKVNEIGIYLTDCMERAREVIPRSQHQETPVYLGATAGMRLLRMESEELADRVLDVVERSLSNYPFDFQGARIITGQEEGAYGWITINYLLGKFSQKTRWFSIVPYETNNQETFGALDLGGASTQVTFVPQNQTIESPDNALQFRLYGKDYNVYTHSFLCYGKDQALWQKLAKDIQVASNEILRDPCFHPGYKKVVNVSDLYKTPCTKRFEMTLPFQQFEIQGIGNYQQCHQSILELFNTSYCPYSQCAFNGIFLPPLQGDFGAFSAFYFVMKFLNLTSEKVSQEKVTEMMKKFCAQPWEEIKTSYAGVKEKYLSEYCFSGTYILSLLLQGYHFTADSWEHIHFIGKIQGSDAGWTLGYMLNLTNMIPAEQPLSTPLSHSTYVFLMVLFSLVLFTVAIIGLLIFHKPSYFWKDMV
The experiment is described as follows: Cross reactivity: FACS binding to human ENTPD1 expressing NIH/3T3 cells. The conditions noted are these: NIH/3T3-ENTPD1 cells, 50 nM antibody. The procedure:
(§1) FACS screening: Specific binding of candidate antibodies to endogenously expressed ENTPD2 was assessed by flow cytometry. Cells were rinsed thoroughly with 1×PBS and treated with Accutase (Millipore #SCR005) to lift from growth plates and resuspended at approximately 1×10^5 cells/90 μL in 1× FACS buffer (2% FBS+0.1% NaN3 in PBS). In a 96-well U-bottom plate, 10 μL of 10× antibody solution in FACS buffer was pre-seeded and 90 μL of cell suspension was added. Cell were incubated for 30 minutes at 4° C., washed 1× with cold PBS and resuspended in 100 μL of 1:500 secondary antibody 1× FACS buffer (Allophycocyanin conjugated F(ab′)2 goat anti-human IgG, Fcγ specific; Jackson Immunoresearch, Cat#109-136-098). After additional incubation for 15 min at 4° C., cells were washed twice with PBS and resuspended in 100 μL of 1×FACS buffer with 4 μg/mL propidium iodide (Life Technologies, Cat#P3566). Geometric mean fluorescence intensity was calculated on live single cells using FlowJo software.
(§2) Cross reactivity Human ENTPD1 (NP_001767) expressing NIH/3T3 cells were generated using a retroviral transduction approach. 72 hrs post transduction, engineered cells were stained with the anti-Human CD39/ENTPD1 APC-conjugated Antibody (R&D systems, Minneapolis, Minn.) and live cells that expressed human ENTPD1 were separated from the rest of the population via fluorescence activated cell sorting. […]

Another experiment concerns H520 cells. The experiment in a line: Cross reactivity: FACS binding to H520 cells (ENTPD3 and ENTPD8 expression). On the set-up: species or system human. The note with it: 50 nM antibody. How it is done:
as §1
H520 cells were identified as a cancer cell line with ENTPD3 (Ct 25) and ENTPD8 (Ct 26) expression by Taqman and were used for selectivity screening.

The subject of a further experiment is NIH/3T3 cells. The experiment in a line: Cross reactivity: FACS binding to NIH/3T3 control cells. The conditions noted are these: 50 nM antibody. The procedure: as §1, §2
[1] abbreviates: combination with anti-PD-1 Ab, tumor, day 8.

B1: mAb13: anti-mouse ENTPD2 antibody; HC SEQ ID NO: 193, LC SEQ ID NO: 204 (antibody)
heavy: QVQLVQSGAELKQPGQSVKISCKASGYTFTHYGMNWVKQAPGQGLKWMGWINTDTGNPTYADDFKGRFVFSLDTSVSTAYLQISNLKNEDTATYYCVRYGTLYSGYGFFFDSWGQGTLVTVSSAKTTAPSVYPLAPVCGDTTGSSVTLGCLVKGYFPEPVTLTWNSGSLSSGVHTFPAVLQSDLYTLSSSVTVTSSTWPSQSITCNVAHPASSTKVDKKIEPRGPTIKPCPPCKCPAPNLLGGPSVFIFPPKIKDVLMISLSPIVTCVVVDVSEDDPDVQISWFVNNVEVHTAQTQTHREDYNSTLRVVSALPIQHQDWMSGKEFKCKVNNKDLPAPIERTISKPKGSVRAPQVYVLPPPEEEMTKKQVTLTCMVTDFMPEDIYVEWTNNGKTELNYKNTEPVLDSDGSYFMYSKLRVEKKNWVERNSYSCSVVHEGLHNHHTTKSFSRTPGK
light: DIMMTQSPSSLSVSAGEKATITCKSSQSLFNSNTNKNYLNWYLQKPGQSPKLLFYYASTRHTGVPDRFIGSGSGTDFTLTITSVQDEDLADYYCQQWYSYPWTFGPGTKLEIKRADAAPTVSIFPPSSEQLTSGGASVVCFLNNFYPKDINVKWKIDGSERQNGVLNSWTDQDSKDSTYSMSSTLTLTKDEYERHNSYTCEATHKTSTSPIVKSFNRNEC
As for B1, in the experiment with B16F10 tumor model (alone, mAb13 15 mg/kg, anti-PD-1 Ab 10 mg/kg i.p., days 1, 5, 8), the anti-tumor efficacy entry is reported as “No significant anti-tumor efficacy”. Also, the “tumor growth relative to No Treatment control” value in the experiment with B16F10 tumor model (combination of mAb13 15 mg/kg and anti-PD-1 Ab 10 mg/kg) is on record as “significant reduction in tumor growth”. Besides, in the experiment on B16F10 tumor model (setting [1]), the “influx of activated CD4 T-helper cells (CD45+ CD8-CD4+ FOXP3-CD69+ CD25+), increase vs No Treatment” value was 7.0 -fold and the “influx of activated CD8 T cells (CD45+ CD4-CD8+ CD69+ CD25+), change vs No Treatment” value is recorded as 5.8 -fold.

B2: mAb7: humanized anti-human ENTPD2 antibody from mAb17; VH SEQ ID NO: 25, VL SEQ ID NO: 78 (antibody, V domains shown)
VH: QVQLVQSGAEVVKPGASVKISCKASGYTFTDYNMDWVKQAPGQRLEWIGDINPKYDISTYNQQFKGKATITVDKSASTAYMELSSLRSEDTAVYYCARRGFFLYYGINYYYFDVWGQGTLVTVSS
VL: EIVLTQSPATLSASPGEEITLSCSASSSVSYIHWYQQKPGQAPRLLIYSTSNLASGIPARFSGSGSGTFYTLTISSVEPEDAAVYYCHQWSSYPWTFGGGTKLEIK
As for B2, the “Apparent FACS binding at 50 nM” value in the experiment with Human ENTPD1, in the experiment on H520 cells and with NIH/3T3 cells was “No binding” throughout.
